Test results taken from article PMC3462199, “Recombinant Adiponectin Does Not Lower Plasma Glucose in Animal Models of Type 2 Diabetes” (PLoS ONE, 2012).
“And” between values parts separate entries of the source, which are not always exact repeats. Identical values can stand only once.

Key:
[1] = target: Murine globular adiponectin (mgAd) (murine); assay: not stated; oligomeric form and share of trimer/hexamer/HMW in the purified batch as listed in Table 1; the table does not say whether from analytical SEC (Figure 1A) or AF4-MALS
[2] = as above
[3] = target: the molecule itself; assay: as above
Q60994 = assay: as above
Q15848 = assay: as above
[4] = target: the molecule itself; assay: AF4-MALS; purified batch; 20 mM Tris-HCl pH 7.4, 100 mM NaCl, 1 mM CaCl2; self-association, size of the oligomer
[5] = target: T1, C39S version of full length murine adiponectin (C39S mAd) (murine), Q60994; assay: not stated; oligomeric form and share of trimer/hexamer/HMW in the purified batch as listed in Table 1; the table does not say whether from analytical SEC (Figure 1A) or AF4-MALS; conditions: remark: other sources report otherwise
T1 chain: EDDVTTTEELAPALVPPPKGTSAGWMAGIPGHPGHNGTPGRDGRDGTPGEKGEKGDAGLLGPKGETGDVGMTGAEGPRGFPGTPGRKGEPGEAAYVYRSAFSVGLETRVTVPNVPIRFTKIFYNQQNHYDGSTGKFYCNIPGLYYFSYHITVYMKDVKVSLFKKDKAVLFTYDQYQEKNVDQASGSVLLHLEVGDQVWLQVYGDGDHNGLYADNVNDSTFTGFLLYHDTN

Molecule	% hexamer [3]	% trimer [3]	% HMW (Q60994)	further results
Murine globular adiponectin (mgAd) (domain or fragment)	–	–	–	% hexamer [1]: -0%; % trimer [1]: 100%
Murine globular adiponectin (mgAd)	–	–	–	% HMW [2]: 0%
Mouse globular adiponectin with an amino terminal FlagTag (FLAG-mgAd) (domain or fragment, murine, UniProt Q60994 109-247, looked up, N233Q to prevent N-glycosylation; the methods mention only N233Q; Total mass printed: 17054 Da; also called FLAG tagged mouse globular adiponectin; source: S. cerevisiae ME1719, supernatant, purified (Q Sepharose FF, Superdex 200)) EAAYMYRSAFSVGLETRVTVPNVPIRFTKIFYNQQNHYDGSTGKFYCNIPGLYYFSYHITVYMKDVKVSLFKKDKAVLFTYDQYQEKNVDQASGSVLLHLEVGDQVWLQVYGDGDHNGLYADNVQDSTFTGFLLYHDTN	15%	85%	0%	–
Full length human adiponectin (hAd), high molecular weight form (protein) ETTTQGPGVLLPLPKGACTGWMAGIPGHPGHNGAPGRDGRDGTPGEKGEKGDPGLIGPKGDIGETGVPGAEGPRGFPGIQGRKGEPGEGAYVYRSAFSVGLETYVTIPNMPIRFTKIFYNQQNHYDGSTGKFHCNIPGLYYFAYHITVYMKDVKVSLFKKDKAMLFTYDQYQENNVDQASGSVLLHLEVGDQVWLQVYGEGERNGLYADNDNDSTFTGFLLYHDTN	–	–	–	% HMW (Q15848): 98%
Full length human adiponectin (hAd), high molecular weight form (natural protein, UniProt Q15848 19-244, looked up, detected proline hydroxylations at 71, 76, 95; detected lysine hydroxylations at 33, 65, 68, 77, 101 (glycosylated hydroxylysyl), human adiponectin; coding region amplified from Human Adipocyte Marathon Ready cDNA; the original signal peptide was replaced by the human CD33 signal peptide and the protein was secreted; also called HMW hAd; HMW adiponectin; source: HMW form isolated; copies: 18) ETTTQGPGVLLPLPKGACTGWMAGIPGHPGHNGAPGRDGRDGTPGEKGEKGDPGLIGPKGDIGETGVPGAEGPRGFPGIQGRKGEPGEGAYVYRSAFSVGLETYVTIPNMPIRFTKIFYNQQNHYDGSTGKFHCNIPGLYYFAYHITVYMKDVKVSLFKKDKAMLFTYDQYQENNVDQASGSVLLHLEVGDQVWLQVYGEGERNGLYADNDNDSTFTGFLLYHDTN	2%	0%	–	stoichiometry N [4]: 18
C39S version of full length murine adiponectin (C39S mAd), Q60994 18-247 (natural protein, here or on the partner: detected proline hydroxylations at 47, 50, 56, 65, 79; detected lysine hydroxylations at 68, 71, 80, 104; detected proline hydroxylations at 47, 50, 56, 65, 79; detected lysine hydroxylations at 68, 71, 80, 104) EDDVTTTEELAPALVPPPKGTSAGWMAGIPGHPGHNGTPGRDGRDGTPGEKGEKGDAGLLGPKGETGDVGMTGAEGPRGFPGTPGRKGEPGEAAYVYRSAFSVGLETRVTVPNVPIRFTKIFYNQQNHYDGSTGKFYCNIPGLYYFSYHITVYMKDVKVSLFKKDKAVLFTYDQYQEKNVDQASGSVLLHLEVGDQVWLQVYGDGDHNGLYADNVNDSTFTGFLLYHDTN	–	–	–	% hexamer [5]: -0%; % trimer [5]: 100%; stoichiometry N [5]: 3
Full length murine adiponectin (mAd) (protein) EDDVTTTEELAPALVPPPKGTCAGWMAGIPGHPGHNGTPGRDGRDGTPGEKGEKGDAGLLGPKGETGDVGMTGAEGPRGFPGTPGRKGEPGEAAYVYRSAFSVGLETRVTVPNVPIRFTKIFYNQQNHYDGSTGKFYCNIPGLYYFSYHITVYMKDVKVSLFKKDKAVLFTYDQYQEKNVDQASGSVLLHLEVGDQVWLQVYGDGDHNGLYADNVNDSTFTGFLLYHDTN	–	–	1%	–
C39S version of full length murine adiponectin (C39S mAd) (protein) EDDVTTTEELAPALVPPPKGTSAGWMAGIPGHPGHNGTPGRDGRDGTPGEKGEKGDAGLLGPKGETGDVGMTGAEGPRGFPGTPGRKGEPGEAAYVYRSAFSVGLETRVTVPNVPIRFTKIFYNQQNHYDGSTGKFYCNIPGLYYFSYHITVYMKDVKVSLFKKDKAVLFTYDQYQEKNVDQASGSVLLHLEVGDQVWLQVYGDGDHNGLYADNVNDSTFTGFLLYHDTN	–	–	0%	–
Full length murine adiponectin (mAd) (natural protein, UniProt Q60994 18-247, looked up, detected proline hydroxylations at 65, 79; detected lysine hydroxylations at 36, 68, 71, 80, 104, murine adiponectin; coding region amplified from a mouse spleen cDNA library; the original signal peptide was replaced by the human CD33 signal peptide and the protein was secreted; The forward primer begins with catcatcat (three His codons) followed by gcc gaa gat gac gtt (A E D D V); Batch is a mixture of trimer and hexamer) EDDVTTTEELAPALVPPPKGTCAGWMAGIPGHPGHNGTPGRDGRDGTPGEKGEKGDAGLLGPKGETGDVGMTGAEGPRGFPGTPGRKGEPGEAAYVYRSAFSVGLETRVTVPNVPIRFTKIFYNQQNHYDGSTGKFYCNIPGLYYFSYHITVYMKDVKVSLFKKDKAVLFTYDQYQEKNVDQASGSVLLHLEVGDQVWLQVYGDGDHNGLYADNVNDSTFTGFLLYHDTN	53%	46%	–	stoichiometry N [3]: 3 and 6
